Measured values reported in patent US20070071746A1 (AstraZeneca / MedImmune, published 2007).

Columns and labels:
[1] = target: T1, mouse YKL-40/BRP-39 (mouse, UniProt Q61362 30-389); assay: ELISA
T1 construct: Recombinant from HEK293; non-tagged versions also made; also called mYKL40/BRP39; mYKL-40

[2] = target: T2, human YKL-40 (human, UniProt P36222 22-383); assay: ELISA
T2 construct: Recombinant from HEK293; non-tagged versions also made; also called hYKL-40; chitinase 3-like 1

[3] = target: T3, mouse AMCase E140A (mouse, UniProt Q91XA9 22-473); assay: ELISA; + = 0.20 to 0.99 OD at 62.5 ng/ml
T3 construct: Full length point mutant without chitinase activity; also called mAMCase E140A
T3 sequence (Q91XA9 22-473 E140A limits assumed): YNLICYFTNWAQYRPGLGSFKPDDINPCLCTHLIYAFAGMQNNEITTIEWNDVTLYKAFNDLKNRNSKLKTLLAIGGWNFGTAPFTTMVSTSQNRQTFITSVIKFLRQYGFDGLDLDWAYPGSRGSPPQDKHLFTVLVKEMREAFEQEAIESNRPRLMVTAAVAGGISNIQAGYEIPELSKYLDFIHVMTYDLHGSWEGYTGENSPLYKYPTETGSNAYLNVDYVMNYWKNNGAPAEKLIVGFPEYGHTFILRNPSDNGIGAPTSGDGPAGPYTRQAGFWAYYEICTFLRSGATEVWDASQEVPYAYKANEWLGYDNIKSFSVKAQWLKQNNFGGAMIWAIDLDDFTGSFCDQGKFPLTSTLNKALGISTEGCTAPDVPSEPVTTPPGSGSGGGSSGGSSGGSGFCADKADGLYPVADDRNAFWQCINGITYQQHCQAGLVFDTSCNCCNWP

[4] = target: T4, Ym2 (mouse, UniProt Q91Z98 22-402); assay: ELISA; + = 0.20 to 0.99 OD at 62.5 ng/ml
T4 construct: Recombinant from HEK293; non-tagged versions also made; also called chitinase 3-like 4
T4 sequence (Q91Z98 other isoform, or with tags, fused parts or gaps limits assumed): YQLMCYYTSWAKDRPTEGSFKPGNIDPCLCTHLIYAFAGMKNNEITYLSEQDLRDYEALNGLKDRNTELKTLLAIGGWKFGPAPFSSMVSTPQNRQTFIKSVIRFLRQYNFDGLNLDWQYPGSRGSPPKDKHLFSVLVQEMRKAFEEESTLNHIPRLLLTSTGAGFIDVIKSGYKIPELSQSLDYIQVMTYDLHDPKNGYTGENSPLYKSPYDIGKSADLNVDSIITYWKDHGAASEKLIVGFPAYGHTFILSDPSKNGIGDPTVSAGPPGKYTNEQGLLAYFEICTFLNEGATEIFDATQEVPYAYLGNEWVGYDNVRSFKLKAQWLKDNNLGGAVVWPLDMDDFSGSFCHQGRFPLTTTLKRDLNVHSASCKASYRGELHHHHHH

[5] = target: T5, human YKL-39 (human, UniProt Q15782 27-390); assay: ELISA; + = 0.20 to 0.99 OD at 62.5 ng/ml
T5 construct: Recombinant from HEK293; non-tagged versions also made; also called hYKL-39; chondrocyte protein 39
T5 sequence: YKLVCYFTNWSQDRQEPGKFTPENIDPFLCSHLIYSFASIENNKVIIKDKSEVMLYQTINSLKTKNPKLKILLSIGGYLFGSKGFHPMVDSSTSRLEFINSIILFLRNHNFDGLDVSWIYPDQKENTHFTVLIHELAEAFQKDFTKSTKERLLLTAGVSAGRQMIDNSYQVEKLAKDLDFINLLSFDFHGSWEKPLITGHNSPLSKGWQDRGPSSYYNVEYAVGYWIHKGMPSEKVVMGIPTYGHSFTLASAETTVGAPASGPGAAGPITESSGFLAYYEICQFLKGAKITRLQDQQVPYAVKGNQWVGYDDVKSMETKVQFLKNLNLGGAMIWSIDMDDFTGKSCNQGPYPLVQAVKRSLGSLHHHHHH

[6] = target: T6, mouse acidic mammalian chitinase (AMCase), full length (mouse, UniProt Q91XA9 22-473); assay: ELISA; ++ = 1.00 to 2.49 OD at 62.5 ng/ml
T6 construct: Recombinant, secreted from HEK293 cells and purified by its His tag; Biotin labeled in the galectin ELISA; also called mAMCase; mouse AMCase
T6 sequence (Q91XA9 other isoform, or with tags, fused parts or gaps limits assumed): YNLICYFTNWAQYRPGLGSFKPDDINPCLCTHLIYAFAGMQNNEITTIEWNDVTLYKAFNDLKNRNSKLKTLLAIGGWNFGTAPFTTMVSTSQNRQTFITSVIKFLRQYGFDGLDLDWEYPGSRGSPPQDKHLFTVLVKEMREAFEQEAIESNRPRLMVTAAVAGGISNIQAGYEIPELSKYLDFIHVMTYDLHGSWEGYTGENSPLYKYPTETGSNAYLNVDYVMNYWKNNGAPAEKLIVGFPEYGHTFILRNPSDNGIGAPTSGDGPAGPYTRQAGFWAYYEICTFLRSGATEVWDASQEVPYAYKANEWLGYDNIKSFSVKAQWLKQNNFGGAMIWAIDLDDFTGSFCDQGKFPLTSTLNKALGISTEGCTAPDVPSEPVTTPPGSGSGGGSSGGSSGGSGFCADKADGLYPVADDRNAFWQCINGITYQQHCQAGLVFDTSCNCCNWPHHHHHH

[7] = target: T7, mouse AMCase truncated form lacking the C-terminal chitin binding domain (mouse, UniProt Q91XA9 22-398, limits assumed); assay: ELISA; ++ = 1.00 to 2.49 OD at 62.5 ng/ml
T7 construct: also called mAMCase TR
T7 sequence (Q91XA9 22-398 limits assumed): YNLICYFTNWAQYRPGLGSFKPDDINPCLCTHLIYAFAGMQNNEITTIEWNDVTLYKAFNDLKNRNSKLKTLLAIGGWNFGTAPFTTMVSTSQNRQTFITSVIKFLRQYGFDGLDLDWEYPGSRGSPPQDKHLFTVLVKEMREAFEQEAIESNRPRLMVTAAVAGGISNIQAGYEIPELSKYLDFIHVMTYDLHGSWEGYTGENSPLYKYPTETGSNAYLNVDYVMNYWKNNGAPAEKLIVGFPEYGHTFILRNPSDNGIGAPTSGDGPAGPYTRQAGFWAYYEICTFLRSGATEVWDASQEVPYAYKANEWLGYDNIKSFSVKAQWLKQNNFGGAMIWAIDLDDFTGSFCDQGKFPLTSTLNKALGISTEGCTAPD

[8] = target: T7, mouse AMCase truncated form lacking the …; assay: ELISA
[9] = target: T8, mouse chitotriosidase (mouse, UniProt Q9D7Q1 22-464); assay: ELISA
T8 construct: Recombinant from HEK293; non-tagged versions also made; also called mChT; mouse ChT
T8 sequence (Q9D7Q1 other isoform, or with tags, fused parts or gaps limits assumed): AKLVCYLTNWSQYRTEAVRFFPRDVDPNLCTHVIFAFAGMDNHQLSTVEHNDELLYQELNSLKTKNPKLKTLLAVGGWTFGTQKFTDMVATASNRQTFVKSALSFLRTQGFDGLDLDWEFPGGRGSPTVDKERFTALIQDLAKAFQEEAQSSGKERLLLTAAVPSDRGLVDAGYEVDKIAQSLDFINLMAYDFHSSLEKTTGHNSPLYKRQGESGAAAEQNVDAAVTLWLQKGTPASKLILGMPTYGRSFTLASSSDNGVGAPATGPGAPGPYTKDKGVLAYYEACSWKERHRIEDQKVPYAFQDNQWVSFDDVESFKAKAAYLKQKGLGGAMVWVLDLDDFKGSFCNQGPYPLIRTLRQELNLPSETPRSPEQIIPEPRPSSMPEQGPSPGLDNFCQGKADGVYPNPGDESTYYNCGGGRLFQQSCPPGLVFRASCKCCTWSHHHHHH

[10] = target: T9, Ym1 (mouse, UniProt O35744 22-398); assay: ELISA
T9 construct: Recombinant from HEK293; non-tagged versions also made; also called chitinase 3-like 3; ECF-L
T9 sequence (O35744 other isoform, or with tags, fused parts or gaps limits assumed): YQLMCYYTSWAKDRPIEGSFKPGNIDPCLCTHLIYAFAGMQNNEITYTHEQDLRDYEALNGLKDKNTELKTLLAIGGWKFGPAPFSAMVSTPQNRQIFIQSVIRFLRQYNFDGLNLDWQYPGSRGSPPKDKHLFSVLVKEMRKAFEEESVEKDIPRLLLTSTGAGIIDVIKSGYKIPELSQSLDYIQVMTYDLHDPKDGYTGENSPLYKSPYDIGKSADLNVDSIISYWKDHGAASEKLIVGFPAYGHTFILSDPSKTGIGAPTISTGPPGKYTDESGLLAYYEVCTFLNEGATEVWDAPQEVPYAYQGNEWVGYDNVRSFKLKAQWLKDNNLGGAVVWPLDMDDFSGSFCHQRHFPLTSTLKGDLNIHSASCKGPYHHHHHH

[11] = target: T4, Ym2; assay: ELISA
[12] = target: T10, human AMCase C-terminally truncated, lacking the chitin binding domain (human, UniProt Q9BZP6 22-398, limits assumed); assay: ELISA
T10 construct: Biotin labeled in the galectin ELISA; also called hAMCase TR
T10 sequence (Q9BZP6 22-398 limits assumed): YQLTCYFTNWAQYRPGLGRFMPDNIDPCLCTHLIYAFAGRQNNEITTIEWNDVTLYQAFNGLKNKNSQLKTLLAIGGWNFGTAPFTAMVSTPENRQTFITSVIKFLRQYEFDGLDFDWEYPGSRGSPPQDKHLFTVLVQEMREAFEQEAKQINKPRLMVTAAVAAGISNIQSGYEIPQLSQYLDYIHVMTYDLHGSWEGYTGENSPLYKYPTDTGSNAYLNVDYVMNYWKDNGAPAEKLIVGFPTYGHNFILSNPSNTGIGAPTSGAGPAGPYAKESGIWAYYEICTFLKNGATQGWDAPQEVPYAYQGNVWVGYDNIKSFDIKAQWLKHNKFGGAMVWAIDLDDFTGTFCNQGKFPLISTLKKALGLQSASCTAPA

[13] = target: T11, human chitotriosidase (human, UniProt Q13231 22-466); assay: ELISA
T11 construct: Recombinant from HEK293; non-tagged versions also made; also called hChT; ChT
T11 sequence (Q13231 other isoform, or with tags, fused parts or gaps limits assumed): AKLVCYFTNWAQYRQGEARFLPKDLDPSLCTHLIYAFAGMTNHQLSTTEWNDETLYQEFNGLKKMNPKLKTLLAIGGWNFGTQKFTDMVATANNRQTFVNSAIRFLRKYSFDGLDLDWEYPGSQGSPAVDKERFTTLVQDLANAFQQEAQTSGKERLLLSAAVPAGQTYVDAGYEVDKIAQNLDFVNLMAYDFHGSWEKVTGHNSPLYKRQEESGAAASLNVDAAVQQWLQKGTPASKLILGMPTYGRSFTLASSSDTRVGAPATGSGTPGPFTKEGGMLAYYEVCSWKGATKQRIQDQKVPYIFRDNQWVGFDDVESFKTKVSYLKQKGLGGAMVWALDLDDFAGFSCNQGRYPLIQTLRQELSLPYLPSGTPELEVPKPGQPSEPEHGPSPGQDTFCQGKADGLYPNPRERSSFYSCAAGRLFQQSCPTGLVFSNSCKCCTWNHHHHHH

[14] = target: T5, human YKL-39; assay: ELISA
[15] = target: T6, mouse acidic mammalian chitinase …; assay: ELISA; + = 0.20 to 0.99 OD at 62.5 ng/ml
[16] = target: T12, mouse AMCase D136A (mouse, UniProt Q91XA9 22-473); assay: ELISA; ++ = 1.00 to 2.49 OD at 62.5 ng/ml
T12 construct: Full length point mutant without chitinase activity; also called mAMCase D136A
T12 sequence (Q91XA9 22-473 D136A limits assumed): as the sequence (Q91XA9 22-473 E140A limits assumed) above, with D115A, A119E counted along it

T2 sequence (P36222 other isoform, or with tags, fused parts or gaps limits assumed): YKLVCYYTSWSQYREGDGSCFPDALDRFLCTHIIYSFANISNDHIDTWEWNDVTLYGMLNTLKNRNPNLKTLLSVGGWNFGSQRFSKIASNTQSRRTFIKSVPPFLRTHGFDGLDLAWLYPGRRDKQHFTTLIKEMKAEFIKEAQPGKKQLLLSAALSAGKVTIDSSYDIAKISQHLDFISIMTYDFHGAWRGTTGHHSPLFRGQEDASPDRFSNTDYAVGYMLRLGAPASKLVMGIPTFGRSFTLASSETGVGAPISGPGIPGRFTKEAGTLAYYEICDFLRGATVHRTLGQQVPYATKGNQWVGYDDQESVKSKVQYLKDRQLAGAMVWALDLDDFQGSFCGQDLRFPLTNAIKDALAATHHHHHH
T1 sequence (Q61362 other isoform, or with tags, fused parts or gaps limits assumed): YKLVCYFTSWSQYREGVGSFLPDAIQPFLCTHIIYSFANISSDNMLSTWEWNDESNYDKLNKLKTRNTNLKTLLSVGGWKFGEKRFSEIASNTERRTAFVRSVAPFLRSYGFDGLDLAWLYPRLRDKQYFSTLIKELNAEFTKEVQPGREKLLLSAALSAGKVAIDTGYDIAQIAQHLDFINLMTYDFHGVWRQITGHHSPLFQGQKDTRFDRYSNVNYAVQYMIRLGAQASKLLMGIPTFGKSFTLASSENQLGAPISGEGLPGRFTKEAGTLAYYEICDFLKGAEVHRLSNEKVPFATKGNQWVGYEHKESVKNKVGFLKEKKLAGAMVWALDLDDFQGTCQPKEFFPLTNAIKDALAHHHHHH

B1: Z1 (antibody, V domains shown)
VH: EVQLLESGGGLVQPGGSLRLSCAASGFTFSFYRMAWVRQAPGKGLEWVSRISSSGGPTMYADSVKGRFTISRDNSKNTLYLQMNSLRAEDTAVYYCTTEKQYAGVTFESWGQGTLVTVSS
VL: DIQMTQSPATLSLSPGERATLSCRASQSVSSYLAWYQQKPGQAPRLLIYDASNRATGIPARFSGSGSGTDFTLTISSLEPEDFAVYYCQQRSNSPTFGGGTKVEIK
notes: Fully human anti-AMCase antibody from phage display, converted to full length IgG
For B1, the binding result [1] was “no binding”, the binding result [2] was “no binding” and the “ELISA OD at 62.5 ng/ml antibody” value [3] was 0.2 to 0.99 od. For the same binder, the binding result [4] was “binds”, the “ELISA OD at 62.5 ng/ml antibody” value [5] was 0.2 to 0.99 od and the “ELISA OD at 62.5 ng/ml antibody” value [6] was 1 to 2.49 od. The “ELISA OD at 62.5 ng/ml antibody” value [7] was 1 to 2.49 od.

B2: Z8 (antibody, V domains shown)
VH: EVQLLESGGGLVQPGGSLRLSCAASGFTFSPYLMWWVRQAPGKGLEWVSYISSSGGYTSYADSVKGRFTISRDNSKNTLYLQMNSLRAEDTAMYYCARMYYYDSSGYPSFDYWGQGTLVTVSS
VL: QSALTQPPSASGTPGQRVTISCSGSGSNIGSNTVNWYQQLPGTAPKLLIYSSNQRPSGVSDRFSGSKSVASASLAINGLQSEDEADYYCAGWDDSLNGPVFGGGTKLTVL
notes: as for B1
B2: no binding [8]; no binding [9]; no binding [10]. B2: no binding [11]; no binding [1]; no binding [12]. B2: no binding [13]; no binding [14]; no binding [2]. The “ELISA OD at 62.5 ng/ml antibody” value [15] was 0.2 to 0.99 od, the “ELISA OD at 62.5 ng/ml antibody” value [3] was 0.2 to 0.99 od and the “ELISA OD at 62.5 ng/ml antibody” value [16] was 1 to 2.49 od.
